Measured values published in US20030235860A1, “Interactions between AR, ER, TR2, and TR4” (priority 1999, published 2003).
No end group written: not given here.

Legend:
TR4-DR1 = TR4-DR1 (Homo sapiens, UniProt P49116); settings: increasing amounts of in vitro translated AR (1, 2, 4 μl)
Procedure: EMSA was performed as described previously. […] Briefly, the reaction was performed by incubating the 32P-end labeled DR1 probe with in vitro translated TR4 (1 ml) with or without an increasing amount of AR (1, 2, 4 ml). The EMSA incubation buffer is 10 mM HEPES, pH 7.9, 2% (v/v) glycerol, 100 mM KCl, 1 mM EDTA, 5 mM MgCl, and 1 mM DTT. For the antibody supershifted analysis, 1 ml of monoclonal anti-TR4 antibody (#15) was added to the reaction. […] The radioactive gel was analyzed by autoradiography.
One μl of in vitro translated TR4 protein was incubated with increasing amounts of in vitro translated AR (1 μl, 2 μl, and 4 μl) in EMSA reaction buffer (10 mM HEPES pH 7.9, 2% (v/v) glycerol, 100 mM KCl, 1 mM EDTA, 5 mM MgCl2, and 1 mM DTT) for 15 min. 32P-end labeled DR1 was added into the protein mixture and incubated for 15 min before loading. For the antibody supershift assay, 1 μl of monoclonal anti-TR4 antibody was added to the reaction and applied to a 5% native polyacrylamide gel. The radioactive gel was analyzed by autoradiography.

[1] = biological target: T1, interaction between the GAL4-ER and VPI6-TR2 (Homo sapiens, UniProt P03372, G400V); test: Mammalian two-hybrid assay GAL4-ER / VP16-TR2; type: cell-based; settings: PC-3 cells; presence of E2; co-transfection of blocker plasmid
T1 construct: GAL4-DBD fused with ER-LBD (GAL4-ER, aa 282 to 595); expressed in transfected cells; host or cells: H1299, PC-3
T1 sequence (P03372 282-595 G400V): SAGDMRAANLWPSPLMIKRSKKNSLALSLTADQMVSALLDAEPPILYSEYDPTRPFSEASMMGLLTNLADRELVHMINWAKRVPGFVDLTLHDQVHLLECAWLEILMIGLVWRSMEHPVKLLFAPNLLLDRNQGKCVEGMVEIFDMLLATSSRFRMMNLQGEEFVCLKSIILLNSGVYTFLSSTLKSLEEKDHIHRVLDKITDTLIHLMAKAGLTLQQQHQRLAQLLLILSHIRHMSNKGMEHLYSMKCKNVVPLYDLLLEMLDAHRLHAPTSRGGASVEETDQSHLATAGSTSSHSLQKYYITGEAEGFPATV
T1 sequence (P13056 1-603 partner): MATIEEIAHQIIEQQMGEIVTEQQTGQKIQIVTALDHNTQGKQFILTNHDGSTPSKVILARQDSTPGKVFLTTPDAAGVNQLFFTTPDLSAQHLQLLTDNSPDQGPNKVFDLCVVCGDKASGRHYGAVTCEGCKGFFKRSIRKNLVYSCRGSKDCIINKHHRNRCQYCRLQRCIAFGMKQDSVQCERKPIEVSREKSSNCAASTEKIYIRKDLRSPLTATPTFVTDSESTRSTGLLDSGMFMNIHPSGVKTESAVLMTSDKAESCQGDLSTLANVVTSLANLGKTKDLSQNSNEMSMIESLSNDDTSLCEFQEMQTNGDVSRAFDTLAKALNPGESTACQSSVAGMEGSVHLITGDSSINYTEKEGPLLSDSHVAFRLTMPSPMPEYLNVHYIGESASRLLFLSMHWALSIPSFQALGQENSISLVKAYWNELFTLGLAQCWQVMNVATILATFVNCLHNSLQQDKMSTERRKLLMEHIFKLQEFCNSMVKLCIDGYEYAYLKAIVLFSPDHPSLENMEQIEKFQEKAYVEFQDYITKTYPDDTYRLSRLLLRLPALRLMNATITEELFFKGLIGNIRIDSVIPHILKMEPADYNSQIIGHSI
Procedure: Transfections were performed using the calcium-phosphate precipitation method described above. […] 3 μg of a VPI6-TR2 expression plasmid and 3 μg pG5-CAT reporter plasmid. CAT assays were performed as described above.
Cells were also transfected with a β-galactosidase expression plasmid, pCMV-β-gal, as an internal control for transfection efficiency.

MCF7-TR2 cells = test: MTT growth assay, MCF7-TR2 cells; type: cell-based
Procedure: (A) Growth assays were performed by MTT method as instructed by manufacturer (Sigma). 5×10^3 MCF7-pBIG and MCF7-TR2 cells were seeded in 24-well plates and incubated in RPMI with 10% CD-FCS for 48 h. […] After 3- and 5-day treatment, cells were harvested for MTT assay. Data represents the relative folds of MTT O.D.570 values at day 5 divided by that at day 3. […] Cells were then trypsinized and fixed overnight in 70% Ethanol. After cells were incubated with 1 mg/ml RNase A (Sigma) and propidium iodide (Roche Molecular Biochemicals), the DNA contents of cells were measured by a flow cytometry. (C) Percentage of growth suppression by TR2. MCF7-TR2 cells were seeded at 5×10^3 cells per well in 24-well plates. […] The treatments were changed every two days. The indices of cell growth were determined by MTT assay. The MTT values from cells without doxycycline were set as 100% in each kind of treatment. Values are represented by the percentage of growth suppression from cells with doxycycline to that without doxycycline.

TR4-DR1, sequence (P49116 1-615 isoform P49116-2 N175S/W419R/A428G/K503N/L504W/A613V): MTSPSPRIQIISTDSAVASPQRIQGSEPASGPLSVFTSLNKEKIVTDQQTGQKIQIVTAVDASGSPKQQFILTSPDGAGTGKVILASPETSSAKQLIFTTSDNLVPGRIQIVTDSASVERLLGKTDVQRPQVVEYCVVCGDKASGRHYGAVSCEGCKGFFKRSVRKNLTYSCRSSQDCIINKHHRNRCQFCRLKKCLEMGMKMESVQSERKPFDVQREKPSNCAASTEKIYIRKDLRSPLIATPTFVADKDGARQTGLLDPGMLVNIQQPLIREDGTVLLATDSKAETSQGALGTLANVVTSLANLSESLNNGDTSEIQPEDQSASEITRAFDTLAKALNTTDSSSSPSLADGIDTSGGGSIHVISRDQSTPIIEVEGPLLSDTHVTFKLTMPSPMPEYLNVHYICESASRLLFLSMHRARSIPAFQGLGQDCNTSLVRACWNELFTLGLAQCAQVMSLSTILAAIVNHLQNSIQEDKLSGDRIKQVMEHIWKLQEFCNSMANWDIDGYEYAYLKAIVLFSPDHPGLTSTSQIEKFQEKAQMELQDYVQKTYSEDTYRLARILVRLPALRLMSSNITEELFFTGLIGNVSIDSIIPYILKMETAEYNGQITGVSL

AR: androgen receptor, SEQ ID NO:31
Specific TR4-DR1 band (TR4-DR1): decreased

ER-#6: interaction blocker, ER fragment aa 312-340, as HA-tagged peptide, expression plasmid or cleaved peptide (ADQMVSALLDAEPPILYSEYDPTRPFSEA; also: HA tag (position not given here); UniProt P03372 312-340, looked up, fragment)
ER-TR2 interaction (GAL4-ER / VP16-TR2, pG5-CAT) [1]: suppressed

B1: TR2: human testicular orphan nuclear receptor 2, 603 amino acids (protein, UniProt P13056 1-603, looked up)
chain: MATIEEIAHQIIEQQMGEIVTEQQTGQKIQIVTALDHNTQGKQFILTNHDGSTPSKVILARQDSTPGKVFLTTPDAAGVNQLFFTTPDLSAQHLQLLTDNSPDQGPNKVFDLCVVCGDKASGRHYGAVTCEGCKGFFKRSIRKNLVYSCRGSKDCIINKHHRNRCQYCRLQRCIAFGMKQDSVQCERKPIEVSREKSSNCAASTEKIYIRKDLRSPLTATPTFVTDSESTRSTGLLDSGMFMNIHPSGVKTESAVLMTSDKAESCQGDLSTLANVVTSLANLGKTKDLSQNSNEMSMIESLSNDDTSLCEFQEMQTNGDVSRAFDTLAKALNPGESTACQSSVAGMEGSVHLITGDSSINYTEKEGPLLSDSHVAFRLTMPSPMPEYLNVHYIGESASRLLFLSMHWALSIPSFQALGQENSISLVKAYWNELFTLGLAQCWQVMNVATILATFVNCLHNSLQQDKMSTERRKLLMEHIFKLQEFCNSMVKLCIDGYEYAYLKAIVLFSPDHPSLENMEQIEKFQEKAYVEFQDYITKTYPDDTYRLSRLLLRLPALRLMNATITEELFFKGLIGNIRIDSVIPHILKMEPADYNSQIIGHSI
modifications: full-length
notes: human testicular orphan nuclear receptor 2, 603 amino acids
Cell growth suppressed by TR2, compared to cells without doxycycline (MCF7-TR2 cells; all-trans retinoic acid treated cells (all-trans RA)): 29-45%
Cell growth suppressed by TR2, compared to cells without doxycycline (MCF7-TR2 cells; presence of E2, 6- and 8-day treatments): 71-72%
Cell growth suppressed by TR2, compared to cells without doxycycline (MCF7-TR2 cells; under 5 μM tamoxifen treatment): 8-9%
